Results taken from US20240317834A1, “COMPOSITIONS AND METHODS FOR NEUROLOGICAL DISEASES” (CODA BIOTHERAPEUTICS, INC., priority 2020, published 2024).

How the values were obtained:
rat DRG neurons = experiment: Rheobase shift and evoked action potentials in rat DRG neurons (current clamp); format: cell-based
Experimental: Using whole cell manual patch clamp electrophysiology in HEK293 cells, rat DRG neurons and rat hippocampal neurons, the EC50 of the various engineered receptors disclosed herein to Ach and non-native ligands was measured using the Hill equation with peak current measurements from escalating doses of ligand. The rheobase shift was also measured in rat DRG neurons, which reflects the efficacy of the receptors. To calculate the rheobase, first, the amount of current that can produce an action potential was determined. Then the ligand was added, followed by a step wise increase in the current injected up to 700 pA.
For manual patch clamp experiments, Cells plated on coverslips were visualized at 10× and 40× on an inverted fluorescence microscope (Olympus). Recordings were made with an Axopatch 200B amplifier and Digidata 1550B (Molecular Devices) at RT using 3-6 MOhm glass patch electrodes (Sutter, BF150-86-10). Unless otherwise stated, recordings were made in extracellular solution (ECS) containing: 140 mM sodium chloride, 4 mM potassium chloride, 1 mM magnesium chloride, 2 mM calcium chloride, 10 mM HEPES, and 10 mM D-(+)-glucose (pH=7.3 with sodium hydroxide, osmolarity=305−315 mOsm). An 8-line reservoir (AutoMate Scientific) in combination with an 8-channel zero-dead-volume perfusion pencil (AutoMate Scientific) was used for perfusion. Data was acquired using pClamp software (Molecular Devices). Traces were either analyzed in Clampfit (Molecular Devices) or using custom Python code. Plotting and statistics were performed in GraphPad Prism.
DRG rheobase experiments were performed in current clamp mode using a potassium-based internal solution containing: 100 mM potassium D-gluconate, 28 mM potassium chloride, 1 mM magnesium chloride hexahydrate, 5 mM magnesium ATP, 10 mM HEPES, and 0.5 mM EGTA (pH=7.2 with potassium hydroxide, osmolarity=290-295 mOsm, calculated liquid junction potential=−13.5 mV). To measure DRG input resistance and rheobase, 500 ms current steps (−200 pA to 700 pA) were applied the membrane in the presence and absence of a compound. No holding current was applied to the membrane for cells included in the final datasets. Data were acquired at 10 kHz, with Bessel filter at 2 kHz and series resistance compensation at 100%. Rheobase was defined as the smallest depolarizing current injection required to cause an action potential to fire in the cell. In a subset of cells, the rheobase was ambiguous, since the action potential appeared to be graded in amplitude. In these cases, a […] of the trace clarified the rheobase. Input resistance was measured from the negative current injections, calculated as the difference in membrane potential at steady state divided by the current injection amplitude and then averaged across the four negative current steps for each recording. Resting membrane potential was measured from the first 100 ms of each sweep, averaged for each recording, and corrected for liquid junction potential. One-way ANOVA with multiple comparisons was used to test for significance of difference in rheobase and input resistance between baseline, drug, and wash conditions.

Lenti-X 293T cells = experiment: YFP fluorescence quenching anion reporter plate reader assay of engineered receptors stimulated with acetylcholine or a non-native ligand; format: cell-based
Summary of the method: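 Lenti-X 293T cells carrying a YFP anion reporter were transiently transfected with channel DNA and assayed the next day in HEPES-buffered ECS at pH 7.2. Ligand (acetylcholine or non-native ligand) was added in NaI-substituted ECS. Percent quench was the mean of the last 10 s relative to the 15 s pre-addition baseline.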

B1: CODA1039: engineered chimeric LGIC receptor, Y115E, Y210W in SEQ ID NO: 33 (protein)
chain: MRCSPGGVWLALAASLLHVSLQGEFQRKLYKELVKNYNPLERPVANDSQPLTVYFSLSLLQIMDVDEKNQVLTTNIWLQMSWTDHYLQWNVSEYPGVKTVRFPDGQIWKPDILLENSADERFDATFHTNVLVNSSGHCQYLPPGIFKSSCPMDLKNFPMDVQTCKLKFGSWSYGGWSLDLQMQEADISGYIPNGEWDLVGIPGKRSERFWECCKEPYPDVTFTVTMRRRMGYYLIQMYIPSLLIVILSWISFWINMDAAPARVGLGITTVLTMTTQSSGSRASLPKVSYVKAIDIWMAVCLLFVFSALLEYAAVNFVSRQHKELLRFRRKRRHHKSPMLNLFQEDEAGEGRFNFSAYGMGPACLQAKDGISVKGANNSNTTNPPPAPSKSPEEMRKLFIQRAKKIDKISRIGFPMAFLIFNMFYWIIYKIVRREDVHNQ
modifications: synthetic sequence of chimeric LGIC
Rheobase Shift; Rat DRG Neurons, +TC-5619 @ EC90 (rat DRG neurons; +TC-5619 @ EC90): 453 ± 58 pA | Rheobase Shift; Rat DRG Neurons, Baseline (rat DRG neurons; Baseline, no ligand): 88 ± 9 pA | YFP fluorescence quenching using CNL001 (Lenti-X 293T cells; 1 nM CNL001, first column): −1.12% | YFP fluorescence quenching using CNL001 (Lenti-X 293T cells; 1 nM CNL001, second column): −3.941% | YFP fluorescence quenching using TC-5619/Bradanicline (Lenti-X 293T cells; 1 nM brd): −5.55% | YFP fluorescence quenching using TC-5619/Bradanicline (Lenti-X 293T cells; 3 nM brd): 6.78% | YFP fluorescence quenching using Varenicline (Lenti-X 293T cells; 3 nM var, first column): −10.926 | YFP fluorescence quenching using Varenicline (Lenti-X 293T cells; 3 nM var, second column): −7.395 | YFP fluorescence quenching using CNL001 (Lenti-X 293T cells; 10 nM CNL001, first column): 6.275% | YFP fluorescence quenching using CNL001 (Lenti-X 293T cells; 10 nM CNL001, second column): 11.943% | YFP fluorescence quenching using TC-5619/Bradanicline (Lenti-X 293T cells; 10 nM brd): −2.7% | YFP fluorescence quenching using TC-5619/Bradanicline (Lenti-X 293T cells; 30 nM brd): 34.43% | YFP fluorescence quenching using Facinicline (Lenti-X 293T cells; 30 nM fac): −13.46 | YFP fluorescence quenching using Varenicline (Lenti-X 293T cells; 30 nM var, first column): −5.661 | YFP fluorescence quenching using Varenicline (Lenti-X 293T cells; 30 nM var, second column): −1.244 | YFP fluorescence quenching using CNL001 (Lenti-X 293T cells; 50 nM CNL001, first column): 12.949% | YFP fluorescence quenching using CNL001 (Lenti-X 293T cells; 50 nM CNL001, second column): 18.635% | YFP fluorescence quenching using ABT-126 (Lenti-X 293T cells; 50 nM abt): −17.32% | YFP fluorescence quenching using CNL001 (Lenti-X 293T cells; 100 nM CNL001, first column): 17.576% | YFP fluorescence quenching using CNL001 (Lenti-X 293T cells; 100 nM CNL001, second column): 18.319% | YFP fluorescence quenching using CNL002 (Lenti-X 293T cells; 100 nM CNL002): 21.85% | YFP fluorescence quenching using ABT-126 (Lenti-X 293T cells; 100 nM abt): −13.93% | YFP fluorescence quenching using AZD-0328 (Lenti-X 293T cells; 100 nM azd0328): −10.45% | YFP fluorescence quenching using ABT-126 (Lenti-X 293T cells; 300 nM abt): 9.9% | YFP fluorescence quenching using AZD-0328 (Lenti-X 293T cells; 300 nM azd0328): −13% | YFP fluorescence quenching using TC-5619/Bradanicline (Lenti-X 293T cells; 300 nM brd): 70.05% | YFP fluorescence quenching using Facinicline (Lenti-X 293T cells; 300 nM fac): 5.43 | YFP fluorescence quenching using Varenicline (Lenti-X 293T cells; 300 nM var, first column): −4.555 | YFP fluorescence quenching using Varenicline (Lenti-X 293T cells; 300 nM var, second column): 1.081 | YFP fluorescence quenching using ABT-126 (Lenti-X 293T cells; 500 nM abt): 36.97% | YFP fluorescence quenching using Varenicline (Lenti-X 293T cells; 500 nM var, first column): 9.172 | YFP fluorescence quenching using Varenicline (Lenti-X 293T cells; 500 nM var, second column): 12.561 | YFP fluorescence quenching using CNL001 (Lenti-X 293T cells; 1 uM CNL001, first column): 19.329% | YFP fluorescence quenching using CNL001 (Lenti-X 293T cells; 1 uM CNL001, second column): 20.672% | YFP fluorescence quenching using CNL002 (Lenti-X 293T cells; 1 uM CNL002): 47.37% | YFP fluorescence quenching using ABT-126 (Lenti-X 293T cells; 1 uM abt): 48.37% | YFP fluorescence quenching using TC-6987 (Lenti-X 293T cells; 1 uM tc6987): 7.26 | YFP fluorescence quenching using Varenicline (Lenti-X 293T cells; 1 uM var, first column): 7.139 | YFP fluorescence quenching using Varenicline (Lenti-X 293T cells; 1 uM var, second column): 12.664 | YFP fluorescence quenching using ABT-126 (Lenti-X 293T cells; 3 uM abt): 50.5% | YFP fluorescence quenching using ABT-126 (Lenti-X 293T cells; 10 uM abt): 58.13% | YFP fluorescence quenching using TC-6987 (Lenti-X 293T cells; 10 uM tc6987): 11 | YFP fluorescence quenching using CNL002 (Lenti-X 293T cells; 30 uM CNL002): 59.97% | YFP fluorescence quenching using ABT-126 (Lenti-X 293T cells; 30 uM abt): 64.1% | YFP fluorescence quenching using AZD-0328 (Lenti-X 293T cells; 30 uM azd0328): 30.76% | YFP fluorescence quenching using Facinicline (Lenti-X 293T cells; 30 uM fac): 49.06 | YFP fluorescence quenching using ABT-126 (Lenti-X 293T cells; 50 uM abt): 66.67% | YFP fluorescence quenching using ABT-126 (Lenti-X 293T cells; 100 uM abt): 68.63% | YFP fluorescence quenching using TC-6987 (Lenti-X 293T cells; 500 uM tc6987): 7.97 | percent quench of YFP fluorescence, 30 nM TC-6683 (Lenti-X 293T cells; TC-6683 30 nM): −1.608% | percent quench of YFP fluorescence, 300 nM TC-6683 (Lenti-X 293T cells; TC-6683 300 nM): −3.491% | percent quench of YFP fluorescence, 3 uM TC-6683 (Lenti-X 293T cells; TC-6683 3 uM): −6.153% | percent quench of YFP fluorescence, 30 uM TC-6683 (Lenti-X 293T cells; TC-6683 30 uM): −9.263% | percent quench of YFP fluorescence, 100 uM TC-6683 (Lenti-X 293T cells; TC-6683 100 uM): −9.19% | percent quench of YFP fluorescence, 10 uM ach (Lenti-X 293T cells; acetylcholine 10 uM): −2.97% | percent quench of YFP fluorescence, 50 uM ach (Lenti-X 293T cells; acetylcholine 50 uM): −3.94% | percent quench of YFP fluorescence, 100 uM ach (Lenti-X 293T cells; acetylcholine 100 uM): 0.35% | percent quench of YFP fluorescence, 300 uM ach (Lenti-X 293T cells; acetylcholine 300 uM): −4.13% | percent quench of YFP fluorescence, 500 uM ach (Lenti-X 293T cells; acetylcholine 500 uM): −5.18% | percent quench of YFP fluorescence, 1 mM ach (Lenti-X 293T cells; acetylcholine 1 mM): 1.21% | percent quench of YFP fluorescence, 3 mM ach (Lenti-X 293T cells; acetylcholine 3 mM): 26.69%
